Experimental data: the domain aggregation screens of Martell et al. (2025)

Assay: soluble fraction after stress (log2 fold change); higher = more stays soluble; pooled small domains, quantitative proteomics
Conditions: stress: pH 4
Outline: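 High-throughput quantitative proteomics was run on pooled custom libraries of small protein domains following pH 4 stress. Fold changes are on a log2 scale; higher values mean more of a domain remained soluble. The fold change in soluble amount is taken as a measure of aggregation propensity.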

**Q.** With “HMPYEHQRAVGALIRRLREQQGWSQRALADWVHMDQSAVSRVETGQRSVTAEELGRFADALHVSTDALVR” as the sequence, how does the “soluble fraction (log2)” value read?
**A.** The value was 0.059.

**Q.** For “HMNQGKLIEMLQEMKEIAHSQNNYLTKNEIANYLGDTVLSKEQLQAVYHYLGENHIEVEGYVYIP”, which “soluble fraction (log2)” value is on record?
**A.** Its value is -0.51.

**Q.** With “HMDHFFSKYDSIVNHTVQKKETLFGISKKYGLTINEVIKFNPGIQIDKLKRRSVLIIPLMKKN” as the sequence, how does the “soluble fraction (log2)” value read?
**A.** The value was -0.0453.

**Q.** Which “soluble fraction (log2)” value does the source give for “HMTLTLEQAAAIKNSEGEQYGKIESERLAAMSVQIDKAIKSNGHDPNKKADLERKLDAIGIILNARAAG” here?
**A.** The value was -0.0482.

**Q.** With “HMYFMDEETWESKKTLLNDWYEANPEYADRRAISDGLFKIGDLQPDFRRRHWGSIGVIFADIPNSPMG” as the sequence, how does the “soluble fraction (log2)” value read?
**A.** The value was -1.37.

**Q.** With “HMRSASFDIMSQKQSDATLGYERVYDTETNEVYKAYNGFTDDYDGERYKSISDNMYTKGISGYIEK” as the sequence, how does the “soluble fraction (log2)” value read?
**A.** The value was -0.151.

**Q.** For “HMEEMADILKTRIDTLDLSTRTLNALTGANIRTVGGIARKKKEDLLELAGMGEKGIQEIKKVLGGFGITL”, which “soluble fraction (log2)” value is on record?
**A.** Its value is 0.15.

**Q.** For “HMAPTVPEVVRLEEGAARSAIEAAGLSVGSVEFRASSDPAGTVLATRPIAGRKVRPSSAVDLVLSDGRTP”, which “soluble fraction (log2)” value is on record?
**A.** Its value is 0.0751.

**Q.** With “HMEPVQPVMYSEFIESVERGEVVEATIQGDKIIATDRSGNRYTVVGSAKDPQLVGQLLERNVAFKFVEE” as the sequence, how does the “soluble fraction (log2)” value read?
**A.** Its value is -0.971.

**Q.** With “HMKEKDAYTSEILDTLKNAKLLVVEGTVYPLLTRLKNDGLLNYRWEESTSGPPRKYYGLTDEG” as the sequence, how does the “soluble fraction (log2)” value read?
**A.** The value was -0.449.

**Q.** Which “soluble fraction (log2)” value does the source give for “HMGIVAQLPTIRVNGKTLYYYDAQSGDNIYSIAEKLGVTVEDIRANNPGVADGVKPRMRLFFPTSLAK” here?
**A.** The value was 0.0671.

**Q.** With “HMKALPSAEDVALARESGRVLSTVLQTRAETQQIDFHDDKGAVRSVTLPTTALRLLLDVLTEIGQGNAV” as the sequence, how does the “soluble fraction (log2)” value read?
**A.** Its value is -0.161.

**Q.** With “HMLRLLEIIAGNEVSKEINSQVIKYYKALKNKKIEEINNLTPSYNKLIISFDLKKKNFREMKKIIEDISIN” as the sequence, how does the “soluble fraction (log2)” value read?
**A.** Its value is -0.436.

**Q.** With “HMDLTIEQTTVLGKRLFSNALNSLGKKQRNIKKDAIESLLKRMNLKDMDQLYESIGIGDKSPLLMAQILL” as the sequence, how does the “soluble fraction (log2)” value read?
**A.** The value was 0.0239.

**Q.** With “HMFNKTKVPNFIDMNYYEEIEGNSEYDKFNFADPITKNDDTKAPGTVIDQTPEKGTRIDEEKTVIQLTIA” as the sequence, how does the “soluble fraction (log2)” value read?
**A.** The value was -0.149.

**Q.** Which “soluble fraction (log2)” value does the source give for “HMHPKDVPTRRELEVLQAVSEGLSTAEIGLRLDITENTVETFRRRLIQKFDAKNAIDLVVKAMAQGWIKV” here?
**A.** Its value is -0.255.

**Q.** With “HMILNPADEEKMNLINFELQQRGLEINDKEMQYIFTHHSRDLNSLLNLAEKLDEISHQEKKSISINLIKKI” as the sequence, how does the “soluble fraction (log2)” value read?
**A.** The value was -0.158.

**Q.** Which “soluble fraction (log2)” value does the source give for “HMAGPTIVTNSQGVPNYHLVKRGDTVSQIAQRYGLNYRQIGAINNLDSKYTIYSGQWLKLWQG” here?
**A.** Its value is -0.00755.

**Q.** Which “soluble fraction (log2)” value does the source give for “HMVEMPEVGVKVRIEVESHNGSTNFEGIVLHPASKGHLTLKLINGYNASYLIEEIRNLEIIDSS” here?
**A.** The value was -0.763.

**Q.** For “HMDYYDTLGVPRNASQSDIKKAYKKQSMQHHPDRTGGDDTKFKDVNEAYQVLSNSEKKQMYDQFGTA”, which “soluble fraction (log2)” value is on record?
**A.** The value was 0.0201.

**Q.** Which “soluble fraction (log2)” value does the source give for “HMDLRYKVQYNFIDQGMMTKDELLKFSLNQDDVSKIAVFDNDSKQWKEIYAITEISEKLGIS” here?
**A.** Its value is -1.57.

**Q.** Which “soluble fraction (log2)” value does the source give for “HMRSNADALIGRTARVSQTIVENGFGRVALDGDDWKAQAADGSRIEEGQNVIVKDRDSIILTVEKE” here?
**A.** Its value is 0.256.

**Q.** With “HMSTDDILSSITALRLASVQFQLGQFDPALDSLKLVKEQAWSGAKNILAGDIQLAKGDKEAAKASYQQAQQ” as the sequence, how does the “soluble fraction (log2)” value read?
**A.** Its value is -0.542.

**Q.** Which “soluble fraction (log2)” value does the source give for “HMREYVGLSPFNKEKTPSFYVNDEKGQFFDFSSGKNGDLITFLQETERLTFMEAVERLAAEAGLPMPA” here?
**A.** Its value is -0.617.

**Q.** Which “soluble fraction (log2)” value does the source give for “HMYAVDTIHKGTITEMTDKGAVVSLGDNIDGFAPARQLVKEDGTTLKLGDTADFKVIEFSKATKRITLSH” here?
**A.** The value was 0.094.

**Q.** For “HMETVPMIDLRGMTQEQAEKAIVGLGLTVGTVDHSSSDMPAGQVWFQSVEPKDEVAPGTKVNIIISTGS”, which “soluble fraction (log2)” value is on record?
**A.** Its value is -0.128.

**Q.** Which “soluble fraction (log2)” value does the source give for “HMRSREGVRWIIRERIMEELQERHHMDDGELLEMIDRSIGEMGQEIFLPLKERIWLRGSLFDSFR” here?
**A.** The value was -1.44.

**Q.** With “HMTSGTLTLTQDTPVYTEPNKDGGVAYVQPQGDIQWDKYIFANGDNWYSFVQKNRDQEVRFYIAYSDVG” as the sequence, how does the “soluble fraction (log2)” value read?
**A.** The value was -0.623.

**Q.** With “HMLNEIMDTINKYISDKRNNKVAQNILSAALDELNSQIRVGLKDLNPHSIEEFKENVINSPYIEFEQG” as the sequence, how does the “soluble fraction (log2)” value read?
**A.** The value was -0.126.

**Q.** For “HMSWGDVKLTMWGAEEDQTMLREMADAFIEQNADKGNVTIEIGVQSESSAKDTVLADPESAADVFA”, which “soluble fraction (log2)” value is on record?
**A.** The value was -0.106.

**Q.** With “HMNEKFNVYPIPVYNNLNITGLSKPVTYLISSIDGKTIKNGVFQESIDVSDLKSGLYFLQVETKDPVKFIK” as the sequence, how does the “soluble fraction (log2)” value read?
**A.** The value was -0.999.

**Q.** For “HMGVDMAPESIVGKKGVAATELRPAGKVEIHGQVYDAVSVGMFIKRGTGVKVVRYEAAQIYVEPE”, which “soluble fraction (log2)” value is on record?
**A.** Its value is -0.112.

**Q.** For “HMSNSWSYSEFMKAVESGQVESVTISGQSIKGTSRGGQAFESVLPAFDDKLMDTLLVNDVEVIGEKP”, which “soluble fraction (log2)” value is on record?
**A.** Its value is -0.149.

**Q.** For “HMFDGRSDAEKTLDLIKTAIDNILKGGAIQEYKIGTRTAKKYDMAELQVLKGEYAAMVAREKQAETMA”, which “soluble fraction (log2)” value is on record?
**A.** The value was -0.481.

**Q.** Which “soluble fraction (log2)” value does the source give for “HMEGVSNLIVSVTRVKVTVDLSQAKVYLSIFPSEQAAFYLNALQQNRFQLKHDLSQLLKNQLRRIPTLQF” here?
**A.** Its value is -0.0019.

**Q.** With “HMDIAYFSNAELNDAFIQFLNMRQEAGKQLNGYQIQILTEKLERVADTDEDRISAVKNAIAGGWSNFYPPK” as the sequence, how does the “soluble fraction (log2)” value read?
**A.** Its value is -0.366.

**Q.** With “HMASAEDDLTRRARKLLTTSSMLKTLQPDTGERLQWLPQVVRLLAEGVEAPRIVVLIRRAMESG” as the sequence, how does the “soluble fraction (log2)” value read?
**A.** Its value is -0.00608.
